The supplement of paper PMC11502859
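Note: lentiviral eGFP-IRES-mCherry reporter pool sorted by FACS 96 h post-transduction, gated on mCherry-high cells, Illumina read counts normalized per million, median across four biological replicates.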

Each substance was assayed on HEK293T (assay: median enrichment of reporter reads in eGFP-reduced (low/intermediate) vs eGFP-high sorted cells (eGFP-extension fusion abundance) (ratio); higher = stronger loss of eGFP-fusion protein abundance (more destabilising extension)).
For GCGLNCRLTK [MYO16], the median enrichment was 0.777.
QSSAQRRGSMC [FAM49A] gave a median enrichment of 0.176.
With “QGQVICSLSAFTPFNSLTPCQTYLSGTSSPDTFQRREKK [CREBZF]” the median enrichment was 4.04.
“CNDKSRSKEIVGPKGKEGKSAPRLGPGTHTPPDHLGNSRALRSRMLTKSNIQSLVNQDAVSPSVWQSVALAAGKLKADFHSYV [RNF150]” gave a median enrichment of 4.3.
Substance SGQGQPRD [SLC5A5] has a median enrichment of 0.35.
WLQPAKSILLFHFFHDGAV [CTSK] showed a median enrichment of 8.37.
Substance “CQKHKMMQCGPPCTFCNVIAVNGKTIALLKTHL [MARCH11]” has a median enrichment of 12.3.
Substance QLFLKMAIVYEICISVSLYKF [NUP133] has a median enrichment of 11.5.
Substance “LECSPFPCPGWQGRGRVKGMCCNTEDRKKKPLDTARDGG [ORMDL3]” has a median enrichment of 48.4.
For YKSDCSVRIYIYRFQSNKWGNR [CCNG2], the median enrichment was 4.91.
In the case of QTFCSYRLKYLLPIRFFCDMCLPAVN [CCDC59], the median enrichment is reported as 6.05.
For WKK [JAK2], the median enrichment was 0.476.
For EKLVLCSG [ZDBF2], the median enrichment was 5.06.
LKINC [FGG] was tested, and the median enrichment was 0.827.
SRSRDDALFSAIYPKLFQI [PCDHB5] showed a median enrichment of 2.76.
For SFLFYSH [DNAJB9], the median enrichment was 9.2.
LTAPPPPLSPGPGG [VMO1] showed a median enrichment of 8.99.
In the case of WGGLN [OR3A1], the median enrichment is reported as 1.04.
SRPEVQATLASGTPPRL [RTP5] was tested, and the median enrichment was 0.536.
“LGLLALTLQPTLAVWPSPGSFPAPLPLFPVLLNSPSWRVQALGMGGTRPHSFHRALRPDTADQPHSAQEAASGVGAQRGTAAS [BAP1]” gave a median enrichment of 8.12.
“LPRPQPGPRTSGHRWHQPLLQDHQSGAPRTLACVP [GSG1L]” gave a median enrichment of 17.3.
With “LPGLRRTLWTECLRTSYSLMLNPFHFLSFHSWVDSDHKDSWGFPGRTLHLMEHLNCRFCFPPLPHVIIKL [LCE2B]” the median enrichment was 6.36.
KRGTGGRGRGVLHEMLMLSVISGESV [FAM98C] gave a median enrichment of 7.54.
In the case of “RKPLNVRNVGRPFNIITNFMDIIDFIFVRTLMNVKDVGNALPVVETLEYIREFILVRNHINVKNVGKPLVIVQTC [ZNF780B]”, the median enrichment is reported as 7.09.
In the case of CALYLGSGQELHLGTNSC [ABCF2], the median enrichment is reported as 13.2.
In the case of “RTDCRSWEPRHAQASAEGAAGGSARLDPWHLIKKFSLMSMVVGQPSSLSQQAHAASVTSSPAVYTGHCGPEWLGPCRSYTTGC [ZFPM1]”, the median enrichment is reported as 4.58.
With YNSEVNVLKYNY [TEFM] the median enrichment was 0.662.
QELTQQKRTASIPHAFTHQIILKNSDPQVF [TOR3A] showed a median enrichment of 13.3.
With CAQKS [LCE6A] the median enrichment was 0.549.
With KFLSF [FNBP4] the median enrichment was 1.62.
In the case of TSLYKKVGMGRK [Degron APPBP2], the median enrichment is reported as 14.1.
With “RGRGCPPRPLTPPAAVAAILPLAWGLPSPSQSISPPPSCSGWMWACR [KMT2B]” the median enrichment was 4.49.
Work on “WGAPQEGPVDLRRLHKKLMDHWSVPMGSIISSTLKMSKVCSFQTASPGSLGNAGKSKRISLALIT [ACSM5]” yielded a median enrichment of 17.8.
Work on “LRAGEPHILTAPGLYPGHSRDRLVVEPGGAKKASCGPRTAAVRLPMSQAVCVVTAPLSVHLQQRQRRRLPPGRFSLFIC [ZMYND19]” yielded a median enrichment of 6.85.
In the case of GGG [Gly03], the median enrichment is reported as 1.62.
LGRTSALSDRTLRAMLPCHP [MRGPRX3] was tested, and the median enrichment was 7.42.
Work on RVFHP [ZSWIM8] yielded a median enrichment of 0.463.
Substance “SKCVLRASLFFTAAATFPHCLRCREGQVPASTGISDKPRAQPTRGSSLHAHTGYGDGGLQVSSARGLSLWHPHSCPAREALVV [SSNA1]” has a median enrichment of 5.95.
With YPSQGCSSVPSRRMWQGRAGSE [SERPINA4] the median enrichment was 0.599.
Work on LRMWKITCFYLELFNLKIRNCFLLLSQ [CCDC34] yielded a median enrichment of 26.1.
In the case of WGSVQGLSH [CST5], the median enrichment is reported as 0.711.
DDDDD [Asp05] was tested, and the median enrichment was 0.224.
Substance “WERPGGGAHWEGQDSVPALILPCPDVSCFAQRSFLSTPLIPRLVPREGWRPGHGPSRRGREGRRGRGRIEPIPAGEGEPSVHL [ASIC4]” has a median enrichment of 1.34.
YGVAQGAPGRGPGPRTL [TMEM38A] gave a median enrichment of 0.588.
In the case of PPPPPPP [Pro07], the median enrichment is reported as 1.37.
Work on WPPPAPTRPRRALSIS [SLCO4A1] yielded a median enrichment of 9.47.
QAVFNLLLNWVFLALILIINHNL [FAM47A] was tested, and the median enrichment was 5.56.
QELSERCSIPFPHGKAK [ASXL3] gave a median enrichment of 0.227.
RGGMGFTDMVLIH [GABRG2] was tested, and the median enrichment was 7.24.
Work on RAMPSLCAVKLSMHYILLAPLQVNAKSQLG [CDC14A] yielded a median enrichment of 7.49.
WCPPKP [FAM8A1] showed a median enrichment of 0.371.
Substance LMDHG [GLUD2] has a median enrichment of 1.6.
With “RVTFQVVPWAPGSGLWPTFSTFRPICTGCWQGGGRELTGTEGLGTQPFSTCAYRLDLSLLQKPALLCWLAGPVAAG [EIF6]” the median enrichment was 6.39.
“LGYRFWKHLSLGPKEVLLPFWASITQVVPVLTAEETSLPLFVLSPSFFNSV [MS4A8]” gave a median enrichment of 15.7.
With WHHLIDYGTRKSEGFHIR [PLPP6] the median enrichment was 7.61.
Work on SAAVTTFTCSSYTQTLQD [PIFO] yielded a median enrichment of 1.55.
For QNTFLL [CFAP97], the median enrichment was 0.56.
In the case of KDCDFFVKEAVRIIINNSNSLHFSQGVHCS [MAATS1], the median enrichment is reported as 5.42.
With “YGRIMACLSPFLLQIKFSTHSFLLQIKFSTHSFFNTVL [OR2AG2]” the median enrichment was 49.9.
With “QRPLPGPSPAPRAPRPGPGARQTPACAPAERRLETGATASRVQQHSRHGSGRDSAWPRGTFPGQGPGGNWHGLVPLLCCILIP [ANKRD13B]” the median enrichment was 7.68.
